The labels stand for the following.
B1: S-adenosylhomocysteine hydrolase-like protein 1 (Homo sapiens), O43865 (parent)
chain: MSMPDAMPLPGVGEELKQAKEIEDAEKYSFMATVTKAPKKQIQFADDMQEFTKFPTKTGRRSLSRSISQSSTDSYSSAASYTDSSDDEVSPREKQQTNSKGSSNFCVKNIKQAEFGRREIEIAEQDMSALISLRKRAQGEKPLAGAKIVGCTHITAQTAVLIETLCALGAQCRWSACNIYSTQNEVAAALAEAGVAVFAWKGESEDDFWWCIDRCVNMDGWQANMILDDGGDLTHWVYKKYPNVFKKIRGIVEESVTGVHRLYQLSKAGKLCVPAMNVNDSVTKQKFDNLYCCRESILDGLKRTTDVMFGGKQVVVCGYGEVGKGCCAALKALGAIVYITEIDPICALQACMDGFRVVKLNEVIRQVDVVITCTGNKNVVTREHLDRMKNSCIVCNMGHSNTEIDVTSLRTPELTWERVRSQVDHVIWPDGKRVVLLAEGRLLNLSCSTVPTFVLSITATTQALALIELYNAPEGRYKQDVYLLPKKMDEYVASLHLPSFDAHLTELTDDQAKYLGLNKNGPFKPNYYRY
partner: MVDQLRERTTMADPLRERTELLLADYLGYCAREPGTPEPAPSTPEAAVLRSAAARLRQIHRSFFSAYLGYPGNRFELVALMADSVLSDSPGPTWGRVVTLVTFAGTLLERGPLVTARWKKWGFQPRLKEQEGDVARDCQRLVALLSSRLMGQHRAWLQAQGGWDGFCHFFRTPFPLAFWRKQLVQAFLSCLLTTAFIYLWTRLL

Variants of B1 are the subject of this assay. To be noted: with BCL2L10, Q9HD36.
Consider S68A, for which the “effect of a mutation on the interaction” value is reported as “with no effect”.

For the origin of these results see IntAct's records for PubMed 27995898.
